# Measured values taken from patent publication US20150045540A1 (published 2015).
# T1: Placenta Growth Factor (PlGF), human (human, UniProt P49763 21-149)
# T1 chain: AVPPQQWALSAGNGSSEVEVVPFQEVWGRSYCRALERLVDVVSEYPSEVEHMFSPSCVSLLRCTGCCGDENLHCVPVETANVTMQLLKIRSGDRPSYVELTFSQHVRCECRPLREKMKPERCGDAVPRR
# B1: HC 2/SLC 7 (antibody)
# chain 1: GQGTLVTVSSASQPVLHQPPAMSSALGTTIRLTCTLRNDHDIGVYSVYWYQQRPGHPPRFLLRYFSQSDKSQGPQVPPRFSGSKDVARNRGYLSISELQPEDEAMYYCAMGARSRCWPRGFQSKHNSVTHVFGSGTQLTVLSQPKATPSVTLFPPSSEELQANKATLVCLMNDFYPGILTVTWKADGTPITQGVEMTTPSKQSNNKYAASSYLSLTPEQWRSRRSYSCQVMHEGSTVEKTVAPAECS
# chain 2: MSWAPVLLMLFVYCTGCGPQPVLHQPPAMSSALGTTIRLTCTLRNDHDIGVYSVYWYQQRPGHPPRFLLRYFSQSDKSQGPQVPPRFSGSKDVARNRGYLSISVTHVFGSGTQLTVLSQPKATPQVQLVQ
# B2: HC 10/SLC 7 (antibody)
# chain 1: GQGTLVTVSSASTKGPSVFPQPVLHQPPAMSSALGTTIRLTCTLRNDHDIGVYSVYWYQQRPGHPPRFLLRYFSQSDKSQGPQVPPRFSGSKDVARNRGYLSISELQPEDEAMYYCAMGARSRCWPRGFQSKHNSVTHVFGSGTQLTVLSQPKATPSVTLFPPSSEELQANKATLVCLMNDFYPGILTVTWKADGTPITQGVEMTTPSKQSNNKYAASSYLSLTPEQWRSRRSYSCQVMHEGSTVEKTVAPAECS
# chain 2: B1 chain 2
# B3: HC 8/SLC 7 (antibody)
# chain 1: GQGTLVTVSSASTKGPSVQPVLHQPPAMSSALGTTIRLTCTLRNDHDIGVYSVYWYQQRPGHPPRFLLRYFSQSDKSQGPQVPPRFSGSKDVARNRGYLSISELQPEDEAMYYCAMGARSRCWPRGFQSKHNSVTHVFGSGTQLTVLSQPKATPSVTLFPPSSEELQANKATLVCLMNDFYPGILTVTWKADGTPITQGVEMTTPSKQSNNKYAASSYLSLTPEQWRSRRSYSCQVMHEGSTVEKTVAPAECS
# chain 2: B1 chain 2
# B4: HC 2/SLC 5 (antibody)
# chain 1: B1 chain 1
# chain 2: MSWAPVLLMLFVYCTGCGPQPVLHQPPAMSSALGTTIRLTCTLRNDHDIGVYSVYWYQQRPGHPPRFLLRYFSQSDKSQGPQVPPRFSGSKDVARNRGYLSISVTHVFGSGTQLTVLSQPKAQVQLVQ
# B5: HC 10/SLC 15 (antibody)
# chain 1: B2 chain 1
# chain 2: MSWAPVLLMLFVYCTGCGPQPVLHQPPAMSSALGTTIRLTCTLRNDHDIGVYSVYWYQQRPGHPPRFLLRYFSQSDKSQGPQVPPRFSGSKDVARNRGYLSISVTHVFGSGTQLTVLSQPKATPSVTGGGGSQVQLVQ
# B6: HC 6/SLC 6 (antibody)
# chain 1: GQGTLVTVSSASTKGPQPVLHQPPAMSSALGTTIRLTCTLRNDHDIGVYSVYWYQQRPGHPPRFLLRYFSQSDKSQGPQVPPRFSGSKDVARNRGYLSISELQPEDEAMYYCAMGARSRCWPRGFQSKHNSVTHVFGSGTQLTVLSQPKATPSVTLFPPSSEELQANKATLVCLMNDFYPGILTVTWKADGTPITQGVEMTTPSKQSNNKYAASSYLSLTPEQWRSRRSYSCQVMHEGSTVEKTVAPAECS
# chain 2: MSWAPVLLMLFVYCTGCGPQPVLHQPPAMSSALGTTIRLTCTLRNDHDIGVYSVYWYQQRPGHPPRFLLRYFSQSDKSQGPQVPPRFSGSKDVARNRGYLSISVTHVFGSGTQLTVLSQPKATQVQLVQ
# B7: HC 3/SLC 3 (antibody)
# chain 1: GQGTLVTVSSASTQPVLHQPPAMSSALGTTIRLTCTLRNDHDIGVYSVYWYQQRPGHPPRFLLRYFSQSDKSQGPQVPPRFSGSKDVARNRGYLSISELQPEDEAMYYCAMGARSRCWPRGFQSKHNSVTHVFGSGTQLTVLSQPKATPSVTLFPPSSEELQANKATLVCLMNDFYPGILTVTWKADGTPITQGVEMTTPSKQSNNKYAASSYLSLTPEQWRSRRSYSCQVMHEGSTVEKTVAPAECS
# chain 2: MSWAPVLLMLFVYCTGCGPQPVLHQPPAMSSALGTTIRLTCTLRNDHDIGVYSVYWYQQRPGHPPRFLLRYFSQSDKSQGPQVPPRFSGSKDVARNRGYLSISVTHVFGSGTQLTVLSQPQVQLVQ
# B8: HC 8/SLC 3 (antibody)
# chain 1: B3 chain 1
# chain 2: B7 chain 2
# B9: HC 3/SLC 2 (antibody)
# chain 1: B7 chain 1
# chain 2: MSWAPVLLMLFVYCTGCGPQPVLHQPPAMSSALGTTIRLTCTLRNDHDIGVYSVYWYQQRPGHPPRFLLRYFSQSDKSQGPQVPPRFSGSKDVARNRGYLSISVTHVFGSGTQLTVLSQQVQLVQ
# B10: HC 4/SLC 4 (antibody)
# chain 1: GQGTLVTVSSASTKQPVLHQPPAMSSALGTTIRLTCTLRNDHDIGVYSVYWYQQRPGHPPRFLLRYFSQSDKSQGPQVPPRFSGSKDVARNRGYLSISELQPEDEAMYYCAMGARSRCWPRGFQSKHNSVTHVFGSGTQLTVLSQPKATPSVTLFPPSSEELQANKATLVCLMNDFYPGILTVTWKADGTPITQGVEMTTPSKQSNNKYAASSYLSLTPEQWRSRRSYSCQVMHEGSTVEKTVAPAECS
# chain 2: MSWAPVLLMLFVYCTGCGPQPVLHQPPAMSSALGTTIRLTCTLRNDHDIGVYSVYWYQQRPGHPPRFLLRYFSQSDKSQGPQVPPRFSGSKDVARNRGYLSISVTHVFGSGTQLTVLSQPKQVQLVQ
# Biological target: T1, Placenta Growth Factor (PlGF), human
# Assay: ELISA
row,EC50,Binder
1,0.148 nM,B1
2,0.056 nM,B2
3,0.085 nM,B3
4,0.248 nM,B4
5,0.049 nM,B5
6,0.139 nM,B6
7,0.135 nM,B7
8,0.196 nM,B8
9,0.163 nM,B9
10,0.196 nM,B10

# Biological target: Hepatocyte Growth Factor (HGF), human (human, UniProt P14210 32-728)
# Assay: ELISA
# Chain of Hepatocyte Growth Factor (HGF), human (P14210 32-728): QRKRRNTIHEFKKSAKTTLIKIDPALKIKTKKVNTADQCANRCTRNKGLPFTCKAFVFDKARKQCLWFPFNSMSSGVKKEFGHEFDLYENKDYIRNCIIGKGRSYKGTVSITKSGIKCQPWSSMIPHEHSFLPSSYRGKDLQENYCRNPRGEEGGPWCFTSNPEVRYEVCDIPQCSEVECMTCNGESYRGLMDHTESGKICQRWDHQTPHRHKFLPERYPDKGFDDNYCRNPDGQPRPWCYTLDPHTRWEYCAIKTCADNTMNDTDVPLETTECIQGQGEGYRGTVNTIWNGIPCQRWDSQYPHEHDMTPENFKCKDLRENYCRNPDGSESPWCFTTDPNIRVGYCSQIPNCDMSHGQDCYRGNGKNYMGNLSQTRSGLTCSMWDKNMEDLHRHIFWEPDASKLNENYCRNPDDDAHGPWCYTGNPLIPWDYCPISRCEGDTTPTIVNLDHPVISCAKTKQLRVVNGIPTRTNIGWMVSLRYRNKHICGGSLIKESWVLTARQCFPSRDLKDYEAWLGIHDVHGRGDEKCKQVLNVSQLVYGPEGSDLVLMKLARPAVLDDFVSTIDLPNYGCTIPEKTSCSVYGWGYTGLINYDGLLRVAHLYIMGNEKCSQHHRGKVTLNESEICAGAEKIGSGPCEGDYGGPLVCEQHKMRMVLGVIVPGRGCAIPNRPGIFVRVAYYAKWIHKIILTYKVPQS
row,EC50,Binder
1,0.055 nM,B1
2,0.059 nM,B2
3,0.058 nM,B3
4,0.052 nM,B4
5,0.054 nM,B5
6,0.061 nM,B6
7,0.055 nM,B7
8,0.071 nM,B8
9,0.053 nM,B9
10,0.058 nM,B10
